# Experimental data reported in paper doi:10.1101/2023.04.12.536520, “Structural bases for the Charcot–Marie–Tooth disease induced by single amino acid substitutions of myelin protein zero” (bioRxiv, 2023).
# Biological target: the molecule itself
# Assay: SEC; free ECD or ECD-His variants; HiLoad Superdex 200 16/600 (Fig. 4A-C) or Superdex 200 Increase 10/300 (Fig. 3, Fig. S1); standard buffer (20 mM Tris-HCl pH 7.4, 100 mM NaCl); 4 °C; 8-mer to monomers
row,Protein,stoichiometry N
1,"ECD-His A47V variant (domain or fragment, human, two artificial amino acids at the N-terminus; myelin protein zero (MPZ, P0), human, extracellular domain I1 through V121; I1 is residue 30 of the precursor P25189; linker between the ECD and the His6-tag; CMT2-related substitution at the trans interface; not shown: His6, C-terminal, kept) MGIVVYTDREVHGAVGSRVTLHCSFWSSEWVSDDISFTWRYQPEGGRDVISIFHYAKGQPYIDEVGTFKERIQWVGDPRWKDGSIVIHNLDYSDNGTFTCDVKNPPDIVGKTSQVTLYVFEKVPTR",8
2,"ECD-His H52R variant (domain or fragment, human, two artificial amino acids at the N-terminus; myelin protein zero (MPZ, P0), human, extracellular domain I1 through V121; I1 is residue 30 of the precursor P25189; linker between the ECD and the His6-tag; DSS-related substitution at the trans interface; not shown: His6, C-terminal, kept) MGIVVYTDREVHGAVGSRVTLHCSFWSSEWVSDDISFTWRYQPEGGRDAISIFRYAKGQPYIDEVGTFKERIQWVGDPRWKDGSIVIHNLDYSDNGTFTCDVKNPPDIVGKTSQVTLYVFEKVPTR",8
3,"human MPZ-ECD without a histidine-tag (ECD) (domain or fragment, two artificial amino acids at the N-terminus; myelin protein zero (MPZ, P0), human, extracellular domain I1 through V121; I1 is residue 30 of the precursor P25189; Non-glycosylated; also called hMPZ-ECD) MGIVVYTDREVHGAVGSRVTLHCSFWSSEWVSDDISFTWRYQPEGGRDAISIFHYAKGQPYIDEVGTFKERIQWVGDPRWKDGSIVIHNLDYSDNGTFTCDVKNPPDIVGKTSQVTLYVFEKV",8
4,"ECD-His R38A variant (domain or fragment, human, two artificial amino acids at the N-terminus; myelin protein zero (MPZ, P0), human, extracellular domain I1 through V121; I1 is residue 30 of the precursor P25189; linker between the ECD and the His6-tag; trans interface substitution; not shown: His6, C-terminal, kept) MGIVVYTDREVHGAVGSRVTLHCSFWSSEWVSDDISFTWAYQPEGGRDAISIFHYAKGQPYIDEVGTFKERIQWVGDPRWKDGSIVIHNLDYSDNGTFTCDVKNPPDIVGKTSQVTLYVFEKVPTR",8
5,"ECD-His R45A variant (domain or fragment, human, two artificial amino acids at the N-terminus; myelin protein zero (MPZ, P0), human, extracellular domain I1 through V121; I1 is residue 30 of the precursor P25189; linker between the ECD and the His6-tag; trans interface substitution; not shown: His6, C-terminal, kept) MGIVVYTDREVHGAVGSRVTLHCSFWSSEWVSDDISFTWRYQPEGGADAISIFHYAKGQPYIDEVGTFKERIQWVGDPRWKDGSIVIHNLDYSDNGTFTCDVKNPPDIVGKTSQVTLYVFEKVPTR",8
6,"ECD-His E68V variant (domain or fragment, human, two artificial amino acids at the N-terminus; myelin protein zero (MPZ, P0), human, extracellular domain I1 through V121; I1 is residue 30 of the precursor P25189; linker between the ECD and the His6-tag; CMT2-related substitution at the cis interface; not shown: His6, C-terminal, kept) MGIVVYTDREVHGAVGSRVTLHCSFWSSEWVSDDISFTWRYQPEGGRDAISIFHYAKGQPYIDEVGTFKVRIQWVGDPRWKDGSIVIHNLDYSDNGTFTCDVKNPPDIVGKTSQVTLYVFEKVPTR",8
7,"ECD-His D32G variant (domain or fragment, human, two artificial amino acids at the N-terminus; myelin protein zero (MPZ, P0), human, extracellular domain I1 through V121; I1 is residue 30 of the precursor P25189; linker between the ECD and the His6-tag; CMT2-related substitution at the head-to-head interface; not shown: His6, C-terminal, kept) MGIVVYTDREVHGAVGSRVTLHCSFWSSEWVSDGISFTWRYQPEGGRDAISIFHYAKGQPYIDEVGTFKERIQWVGDPRWKDGSIVIHNLDYSDNGTFTCDVKNPPDIVGKTSQVTLYVFEKVPTR",8
8,"ECD-His D32N variant (domain or fragment, human, two artificial amino acids at the N-terminus; myelin protein zero (MPZ, P0), human, extracellular domain I1 through V121; I1 is residue 30 of the precursor P25189; linker between the ECD and the His6-tag; CMT1B-related substitution at the head-to-head interface; the recombinant protein was non-glycosylated; not shown: His6, C-terminal, kept) MGIVVYTDREVHGAVGSRVTLHCSFWSSEWVSDNISFTWRYQPEGGRDAISIFHYAKGQPYIDEVGTFKERIQWVGDPRWKDGSIVIHNLDYSDNGTFTCDVKNPPDIVGKTSQVTLYVFEKVPTR",8
9,"ECD-His D46V variant (domain or fragment, human, two artificial amino acids at the N-terminus; myelin protein zero (MPZ, P0), human, extracellular domain I1 through V121; I1 is residue 30 of the precursor P25189; linker between the ECD and the His6-tag; CMT2-related substitution at the trans interface; not shown: His6, C-terminal, kept) MGIVVYTDREVHGAVGSRVTLHCSFWSSEWVSDDISFTWRYQPEGGRVAISIFHYAKGQPYIDEVGTFKERIQWVGDPRWKDGSIVIHNLDYSDNGTFTCDVKNPPDIVGKTSQVTLYVFEKVPTR",8

# Biological target: the molecule itself
# Assay: SEC-MALS; ECD-His injected at 52 µM; Superdex 200 Increase 10/300 GL; standard buffer (20 mM Tris-HCl pH 7.4, 100 mM NaCl); room temperature; 8-mer to monomers
row,Protein,stoichiometry N
1,"human MPZ-ECD with a C-terminal histidine-tag (ECD-His), wild type (domain or fragment, two artificial amino acids at the N-terminus; myelin protein zero (MPZ, P0), human, extracellular domain I1 through V121; I1 is residue 30 of the precursor P25189; linker between the ECD and the His6-tag; Non-glycosylated; also called hMPZ-ECD-His; WT; not shown: His6, C-terminal, kept) MGIVVYTDREVHGAVGSRVTLHCSFWSSEWVSDDISFTWRYQPEGGRDAISIFHYAKGQPYIDEVGTFKERIQWVGDPRWKDGSIVIHNLDYSDNGTFTCDVKNPPDIVGKTSQVTLYVFEKVPTR",8
